Source: patent US20080167219

Target: purified human factor X (UniProt P00742)
Sequence of UniProt P00742 (P00742 whole entry, looked up): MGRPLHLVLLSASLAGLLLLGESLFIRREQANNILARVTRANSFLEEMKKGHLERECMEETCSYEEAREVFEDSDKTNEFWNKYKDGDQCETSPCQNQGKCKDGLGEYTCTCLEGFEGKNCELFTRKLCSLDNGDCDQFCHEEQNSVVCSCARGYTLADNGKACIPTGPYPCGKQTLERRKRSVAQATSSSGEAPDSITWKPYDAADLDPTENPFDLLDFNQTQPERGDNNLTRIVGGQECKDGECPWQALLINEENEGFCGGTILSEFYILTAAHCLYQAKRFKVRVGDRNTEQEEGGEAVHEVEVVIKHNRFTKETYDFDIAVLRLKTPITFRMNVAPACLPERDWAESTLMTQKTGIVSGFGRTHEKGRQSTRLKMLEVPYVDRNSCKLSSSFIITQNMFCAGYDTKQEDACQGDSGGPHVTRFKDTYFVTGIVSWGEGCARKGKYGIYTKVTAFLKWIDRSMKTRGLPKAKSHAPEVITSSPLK

Substance	KM for factor X, with 0.4 nM FVIIIa	KM for factor X, without FVIIIa	Kcat, with 0.4 nM FVIIIa	Kcat, without FVIIIa	Vmax of factor Xa generation, with 0.4 nM FVIIIa	Vmax of factor Xa generation, without FVIIIa	kcat/KM, with 0.4 nM FVIIIa	kcat/KM, without FVIIIa
recombinant wild type human factor IX (IX-7)	54 nM	757 nM	14.2 s⁻¹	0.000262 s⁻¹	27.8 nM FXa/min	0.16 nM FXa/min	2.64e+08 M⁻¹ s⁻¹	353 M⁻¹ s⁻¹
recombinant human factor IX IX-1, single alanine replacement at residue 86	55.4 nM	532 nM	5.09 s⁻¹	0.000225 s⁻¹	15.1 nM FXa/min	0.14 nM FXa/min	9.3e+07 M⁻¹ s⁻¹	429 M⁻¹ s⁻¹
